Reference: patent US20260125465A1 (BROAD INSTITUTE, published 2026)

B1: Ab_113415 VHH antibody, 6×His tagged, purified (VHH)
VHH: QVQLVESGGGLVQPGGSLRLSCAASGSMFSINAVAWYRQAPGEQREPVAAMTSGGSTIYADSVKGRFTISRDNAKNTVYLQMSSLKPEDTAVYYCNGGWSLAMDYWGQGTSVTVSH
notes: Produced by Genscript in a mammalian cell line and purified; The tag is written after the VHH only by convention
B2: Ab_119704 VHH antibody, 6×His tagged, purified (VHH)
VHH: QLQLVESGGGLVQPGGSLRLSCAASGFTLDNYAIGWFRQAPGKEREGVSSISSSGGSTNYADSVKGRFTVSRDNAKHTVYLQMNSLKPEDTAVYYCAGVGDYGRRAMGQGTSVTVSH
notes: Produced by Genscript in a mammalian cell line and purified
B3: Ab_119702 VHH antibody, 6×His tagged, purified (VHH)
VHH: DVQLVESGGGLVQAGGSLRLSCAASGFPYFSCCMSWHRQAPGKDRELVSSISSDGSTHYADSVRGRFTISKGNARNTLYLQMNSLKPEDTAVYFCAASPRQLGPYYAMDYWGQGTSVTVSH
notes: as for B2
B4: Ab_119707 VHH antibody, 6×His tagged, purified (VHH)
VHH: EVQLVESGGGSVQAGETLRLSCTASGFTFDDSDMGWYRQAPGDECELVSTISSDGSTNYADSVKGRFTISQDNAKNTVYLQMTSLKPEDTAIYSCRTMASRIGCWGQGTLVTVSH
notes: as for B2
B5: Ab_119706 VHH antibody, 6×His tagged, purified (VHH)
VHH: QLQLVESGGGLVQPGGSLRLSCAASGFTLDYYAIGWFRQAPGKEREGVSYISSSGGSTNYADSVKGRFTISRDNAKNTVYLQMNSLKPEDTGVYSCAAAGGYGNSSRYWGQGTSVTVSH
notes: as for B2

These binders were tested against T1, soluble MSLN (Glu2-6-Gly580, Acro Bio Systems, MSN-H82E9-25 ug) (UniProt Q13421 296-580) (assay: biolayer interferometry (BLI) with soluble MSLN).
T1 construct: range 296-580; Detected with an anti-His secondary antibody in the CAR-T staining, so it carries a His tag; also called soluble mesothelin
Procedure: Experiments were undertaken to characterize the ability of the anti-MSLN VHH antibodies to bind MSLN. 6×His tagged (SEQ ID NO: 93) VHH antibodies were produced by Genscript in a mammalian cell line and purified. The purified VHH antibodies were tested using a flow cytometry-based assay to see how well they bound mesothelin expressed on cells (FIG. 9A). […] Also, biolayer interferometry (BLI) was used to accurately assess the binding affinity (Kd) of the anti-MSLN VHH antibodies (Table 5). BLI was conducted with soluble MSLN (Glu2-6-Gly580, Acro Bio Systems, MSN-H82E9-25 ug). […] After exposure to the media containing the soluble MSLN, an anti-His secondary antibody was used to detect CAR-T cells binding the MSLN. T cells expressing CARs containing the anti-MSLN VHH antibodies or SS1 as antigen binding domains bound the soluble MSLN.

T1 sequence (Q13421 other isoform, or with tags, fused parts or gaps limits assumed): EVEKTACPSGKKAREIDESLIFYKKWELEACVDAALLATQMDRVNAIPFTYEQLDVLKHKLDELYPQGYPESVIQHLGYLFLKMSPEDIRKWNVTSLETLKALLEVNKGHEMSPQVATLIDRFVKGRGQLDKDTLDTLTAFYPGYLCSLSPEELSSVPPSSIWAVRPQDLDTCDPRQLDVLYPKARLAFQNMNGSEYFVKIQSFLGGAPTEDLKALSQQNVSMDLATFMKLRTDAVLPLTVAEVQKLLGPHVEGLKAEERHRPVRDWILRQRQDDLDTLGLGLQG

Binder	Kd [nM]
B1	3.69
B2	4.49
B3	5.32
B4	5.95
B5	11.5
